Data set [1] deals with CC(=O)SCCNC(=O)CCNC(=O)[C@H](O)C(C)(C)COP(=O)(O)OP(=O)(O)OC[C@H]1O[C@@H](n2cnc3c(N)ncnc32)[C@H](O)[C@@H]1OP(=O)(O)O. The data set can be described thus: purified protein. The conditions noted are these: NADPH substrates likely compete in the malonyl-acetyl transferase (MAT) binding pocket.
Data set [2] has as its target KS-MAT^S581A didomain of murine FAS (functional MAT knockout) (murine).

As for “metazoan fatty acid synthase (mFAS), murine FAS (Mus musculus)”, the Km in data set [1] is 69 ± 12 µM.

Regarding “decanoyl-acyl carrier protein (ACP) (domain or fragment)”, the Inhibition constant K i (substrate inhibition on titration of decanoyl-ACP at constant metmal-ACP; KS elongation activity by the enzyme-coupled MabA assay, apparent constant) in data set [2] worked out at 270 µM.

Usually Km stands for the concentration of substrate that gives half-maximal velocity.

The record behind these values is PMC12267109, “The enzyme kinetics of branched‐chain fatty acid synthesis of metazoan fatty acid synthase” (Protein Science : A Publication of the Protein Society, 2025).
